PMC9249326 (2022)

Assays:
[1] = target: T1, 6xHis-tagged human NGF (nerve growth factor) (human, UniProt P01138 19-241); test: BLI
[2] = target: T1, 6xHis-tagged human NGF (nerve growth …); test: BLI; remark: listed apart in the source

T1 sequence (P01138 122-241): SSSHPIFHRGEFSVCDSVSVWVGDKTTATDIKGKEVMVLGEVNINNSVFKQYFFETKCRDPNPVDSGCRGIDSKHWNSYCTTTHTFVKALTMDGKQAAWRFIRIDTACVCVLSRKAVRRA

- Kd [1]: < 1 pM
- koff [2]: < 1e-07 s⁻¹
B1: tanezumab (antibody, V domains shown)
VH: QVQLQESGPGLVKPSETLSLTCTVSGFSLIGYDLNWIRQPPGKGLEWIGIIWGDGTTDYNSAVKSRVTISKDTSKNQFSLKLSSVTAADTAVYYCARGGYWYATSYYFDYWGQGTLVTVSS
VL: DIQMTQSPSSLSASVGDRVTITCRASQSISNNLNWYQQKPGKAPKLLIYYTSRFHSGVPSRFSGSGSGTDFTFTISSLQPEDIATYYCQQEHTLPYTFGQGTKLEIK
